Data on one molecule can be found in US20230167458A1, “FORSKOLIN-INDUCIBLE PROMOTERS AND HYPOXIA-INDUCIBLE PROMOTERS” (ASKLEPIOS BIOPHARMACEUTICAL, INC., priority 2020, published 2023).

Entries after “also recorded” stand apart in the source; their conditions may differ.

The subject of the data set is C2C12 human muscle cell line. Briefly: Luciferase expression from forskolin-inducible promoter, transient transfection in differentiated C2C12. The format is cell-based. Here is the method: Luciferase readouts were normalised to β-galactosidase to produce normalised relative luminometer units (RLUs). β-galactosidase containing pcDNA6 plasmid was used as internal control for transfection efficiency (Thermofisher, V22020). β-galactosidase activity was measured as per manufacturer's instructions (Mammalian βGalactosidase Assay Kit, 75707/75710, Thermo Scientific) using 25 μl of lysate. 25 μl of lysate was transferred into a microplate well and mixed with 25 μl of β-galactosidase Assay Reagent, equilibrated to room temperature. The mixture was incubated at 37° C. for 30 min and absorbance measured at 405 nm.
The forskolin-inducible promoters were initially used to drive expression of luciferase in the Huh7 human liver cell line and the C2C12 […]. The promoter constructs were used to drive expression of luciferase in the PM-RQ plasmid. The tested promoters were synthesised directly upstream of the ATG of PM-RQ plasmid.
• Media was prewarmed at 37° C. before use • C2C12 Complete Medium was used to grow the cells before differentiation. […]
C2C12 cells were maintained at 37° C., 5% CO2. […] Detachment was monitored under the microscope. • 4 ml C2C12 Complete Medium was added to inactivate Trypsin and the cells were transferred into a 15 ml tube. • The cells were centrifuged for 3 mins at 250 RCF at room temperature. • The supernatant was aspirated • The cells were resuspended by gentle pipetting up and down in 6 ml C2C12 Complete Medium • The cells were counted in a haemocytometer by using trypan blue (Thermofisher, 15250061) to determine the how many of the cells were alive. Trypan blue stains dead cells in blue and this allows for them not to be counted. The cells were resuspended into trypan blue in ration of 1:10, e.g. 10 μl cells and 90 μl trypan blue and counted using a haemocytometer. • The cells were seeded in complete medium at a density dependent on the passage number. […] The abovementioned densities are experimentally determined for efficient differentiation and transfection. […]

B1: RTV-019: synthetic forskolin-inducible promoter, SEQ ID NO: 44; 3× ATF6, 4× AP1(1) and 3× HRE1 TFBS and CMV-MP (nucleic acid)
DNA: TGACGTGCTGATGATGCGTAGCTAGTAGTTGACGTGCTGATGATGCGTAGCTAGTAGTTGACGTGCTGATGATGCGTAGCTAGTAGTTGAGTCAGATGATGCGTAGCTAGTAGTTGAGTCAGATGATGCGTAGCTAGTAGTTGAGTCAGATGATGCGTAGCTAGTAGTTGAGTCAGATGATGCGTAGCTAGTAGTCTGCACGTAGATGATGCGTAGCTAGTAGTCTGCACGTAGATGATGCGTAGCTAGTAGTCTGCACGTAGATGATGCGTAGCTAGTAGTGCAGTTAGCGTAGCTGAGGTACCGTCGACGATATCGGATCCAGGTCTATATAAGCAGAGCTCGTTTAGTGAACCGTCAGATCGCCTAGATACGCCATCCACGCTGTTTTGACCTCCATAGAAGATCGCCACC
modifications: Synp-RTV-019
notes: 3× ATF6, 4× AP1(1) and 3× HRE1 TFBS and CMV-MP
For the molecule B1, the “luciferase activity following induction” value (C2C12, 20 µM forskolin) was “high activity; also recorded: much higher activity”. The “luciferase activity without induction (background)” value (C2C12, before addition of forskolin) is “low background activity”. Further, under “C2C12 muscle cells, 20 µM forskolin, 24 hrs”, the “fold activation of promoter (luciferase activity)” value is 6 fold.
